{"source": "paper PMC12741062", "about": "(Frontiers in Immunology, 2025)", "key": {"[1]": {"biological_target": "T1, BVDV NS4B-His recombinant protein (Bovine viral diarrhea virus 1, GenBank …)", "T1 construct": "also called recombinant NS4B protein", "experiment": "ELISA; iELISA; NS4B-His or the control BVDV-NS5A-His as coating antigen; the nine nanobodies added; anti-E-tag detection", "conditions": "one partner purified"}, "[2]": {"biological_target": "T2, BVDV NS4B-His recombinant protein (Bovine viral diarrhea virus 1, GenBank …, UniProt A0A068L3P0)", "T2 construct": "also called recombinant NS4B protein", "experiment": "ELISA; iELISA; 96-well plates coated with NS4B protein (400 ng/well); incubated with TAT-Nb91 or Nb91; anti-camel serum (1:2,000) and HRP-conjugated secondary antibody; OD 450 nm", "conditions": "both partners purified"}}}
{"binder": "Nb70 (VHH) VHH: LQESGGGSVQAGGSLRLSCTASTFTYISLYMGWFRQAPGKEREGVAGIYAGGGDTYYADSVKGRFTISQDDAKRTVYLQMNSLKPEDTAMYYCAADRGPSRWDFRSWGQGTQVTVSS", "values": [{"measurement": "binding result", "setting": "[1]", "value": "binds"}]}
{"binder": "TAT-Nb91 recombinant protein (VHH, TAT cell-penetrating peptide from HIV; Linker; VHH of Nb91, as the VHH of m11; About 19 kDa; The primers carry HindIII and XhoI sites; also called TAT-Nb91-His; not shown: His6, C-terminal, kept) VHH: LQESGGGSVQAGGSLKLSCAASGSTFNSCGMGWYRQVPGKERELVSTISDSDTTTYADAVKGRFSISQDKTKNTLYLQMNSLKTEDTARYYCAARSIFAERVCSIHFDSWGQGTQVTVSS", "values": [{"measurement": "binding result", "setting": "[2]", "value": "binds"}]}
{"binder": "Nb85 (VHH) VHH: LQESGGGSVQAGGSLRLSCVSSEYSGTIFAMGWFRQAPGKEREGVAVVDSAITKHYADSVKGRFTISRDNAKNRLDLQMDSLKPEDTGMYYCARSRGYLAGASATLRPTNYDDWGQGTQVTVSS", "values": [{"measurement": "binding result", "setting": "[1]", "value": "binds"}]}
{"binder": "Nb72 (VHH) VHH: LQKAGGVSEQAGASLRLSCVLSARIYGRCCLLWFRQDPGNREGISSINTDGKTSYTDSGKDRFTVSQYTDYNILQLQMNSLKPDDTAVYYCGATERVGDICTEYKYRGQGTQVTVSS", "values": [{"measurement": "binding result", "setting": "[1]", "value": "binds"}]}
{"binder": "Nb27 (VHH) VHH: LQESGGGSVQAGGSLKLSCAASGPIFRRCGMGWYRQAPGKEREVVSGINDAGTASYADSVKGRFTISQDNAKNMLYLQMNSLKTEDTAVYYCAGRKYYDVGNYCSVDLYWGQGTQVTVSS", "values": [{"measurement": "binding result", "setting": "[1]", "value": "binds"}]}
{"binder": "Nb67 (VHH) VHH: LQESGGGLVQAGGSLRLSCTASGLNVDNYEMGWFRQAPGKEREGIAQISCSGAMTYYADSVKGRFTISRDNAKKTLYLQMNSLTPEDTAMYYCAAQTRVCGLWTSRGPEMESDFDAWGQGTQVTVSS", "values": [{"measurement": "binding result", "setting": "[1]", "value": "binds"}]}
